{"source": "paper PMC6308234", "about": "(Scientific Reports, 2018)", "binders": {"B1": {"name": "sdAb DD9 (VHH)", "VHH": "EVQLQASGGGLVQAGGSLRVSCAASGIAFTNYALAWYRQPPGKQREWVATVGVLGGTKYADSVKGRFAISRDNAKNTVILQMNSLKPVDTAVYFCAAVEWSNGRYYWDSWGQGTQVTVSA", "notes": "source: E. coli Turner (DE3), pET22b, periplasmic, purified (Ni-Sepharose, SEC)"}, "B2": {"name": "sdAb DD5 (VHH)", "VHH": "EVQLQASGGGLVQAGGSLRLSCAASGRAFSSETMGWFRQAPGKEREFVAAIWRIGGSTYNTDYADSVKGRFAISADRAKNTVDLQMNTLKPEDTAVYYCAGKMRGRSVNLYDYDYWGQGTQVTVSS", "notes": "as for B1"}, "B3": {"name": "sdAb DB5 (VHH)", "VHH": "DVQLQASGGGLVQDGGSLRLSCAASGLGFRIHSMGWYRQAPGKARDLVAVITDSGQTNYAPSVKGRFTISRESAGNTVYLQMNSLKPDDTAVYYCAVTTWDPHSYWGQGTQVTVSS", "notes": "as for B1"}, "B4": {"name": "sdAb DC7 (VHH)", "VHH": "EVQLQASGGGSVQAGGSLRLSCAHSSITVPDYTIGWYRRAPGKGGEEVSLISMHGGRTWYAGSVKGRFAISRDSVKNTVYLQMNNLKPEDTDIYYCGGTTFGLAAAPNEYDSWGQGSQVTVSS", "notes": "as for B1"}, "B5": {"name": "sdAb DD6 (VHH)", "VHH": "B4 VHH", "notes": "as for B1"}, "B6": {"name": "sdAb DD7 (VHH)", "VHH": "B4 VHH with Q5V, A6Q, Y37F, T58S", "notes": "as for B1"}, "B7": {"name": "sdAb DD1 (VHH)", "VHH": "EVQLQASGGGLVQAGGSLRVSCAATGIAFASYAVAWYRQAPGKQREWVATVGGLGGTKYVDSVKGRFTISRDNAKNAVTLQMNSLKPEDTAVYYCAAVEWDDGHYYWDTWGQGTRVTVSA", "notes": "as for B1"}, "B8": {"name": "sdAb DH4 (VHH)", "VHH": "B7 VHH with E1D, L11V, K64R", "notes": "as for B1"}, "B9": {"name": "sdAb DC4 (VHH)", "VHH": "EVQLQASGGGLVQAGGSLRLSCAASERTFSHYFVGWFRQAPGKEREFVARITWSGSNVEYEDAVKDRFTLSSDNAKNTVYLHMNSLKPEDTAVYYCAAANTIWTPTIRDYNVWGQGTQVTVSS", "notes": "as for B1"}, "B10": {"name": "sdAb DH12 (VHH)", "VHH": "EVQLVESGGGSVQAGGSLRLSCAASERTFSYYFMGWFRQAPGKEREWVARIRWNGDGADYTDAVKDRFTISSDHAKNTVYLQMNSLKPEDTAVYYCAAANSIWKPTTRDYNYWGQGTQVSVSS", "notes": "as for B1"}, "B11": {"name": "biotinylated sdAb DB5 (VHH)", "VHH": "B3 VHH", "notes": "also called Bt-DB5"}}, "note": "Residue numbers refer to the chain shown, from its start."}
{"target": "T1, DENV-4 nonstructural protein 1 (NS1), recombinant (Dengue virus 4, strain …, UniProt P09866)", "T1 construct": "also called DENV-4 NS1; NS1 from DENV-4; source: bought: Native Antigen Company (recombinant)", "assay": "SPR", "details": "both partners purified", "units": {"Kd": "nM"}}
{"binder": "B1", "Kd": 34.8}
{"binder": "B2", "Kd": 24}
{"binder": "B3", "binding result": "no binding (tested: typically up to 300 nM)"}
{"binder": "B4", "Kd": 2.2}
{"binder": "B5", "Kd": 2.5}
{"binder": "B6", "Kd": 2.4}
{"binder": "B7", "Kd": 7.8}
{"binder": "B8", "Kd": 8.5}
{"binder": "B9", "Kd": 43}
{"binder": "B10", "Kd": 20.9}
{"target": "T2, DENV-2 nonstructural protein 1 (NS1), recombinant (Dengue virus 2, strain …, UniProt P29990)", "T2 construct": "also called DENV-2 NS1; NS1 from DENV-2; source: bought: Native Antigen Company (recombinant)", "assay": "SPR", "details": "both partners purified", "units": {"Kd": "nM"}}
{"binder": "B1", "Kd": 6.7}
{"binder": "B2", "Kd": 4.5}
{"binder": "B3", "binding result": "no binding (tested: typically up to 300 nM)"}
{"binder": "B4", "Kd": 2.6}
{"binder": "B5", "Kd": 2}
{"binder": "B6", "Kd": 20.3}
{"binder": "B7", "Kd": 15}
{"binder": "B8", "Kd": 8.5}
{"binder": "B9", "Kd": 42.1}
{"binder": "B10", "Kd": 9.8}
{"target": "T3, DENV-1 nonstructural protein 1 (NS1), recombinant (Dengue virus 1, strain Nauru/West …, UniProt P17763)", "T3 construct": "also called DENV-1 NS1; NS1 from DENV-1; source: bought: Native Antigen Company (recombinant)", "assay": "SPR", "details": "both partners purified", "units": {"Kd": "nM"}}
{"binder": "B1", "Kd": 18}
{"binder": "B2", "Kd": 2.8}
{"binder": "B3", "binding result": "no binding (tested: typically up to 300 nM)"}
{"binder": "B4", "Kd": 9.1}
{"binder": "B5", "Kd": 7.6}
{"binder": "B6", "Kd": 5.4}
{"binder": "B7", "Kd": 28.5}
{"binder": "B8", "Kd": 10.3}
{"binder": "B9", "Kd": 62}
{"binder": "B10", "Kd": 14.4}
{"target": "T4, DENV-3 nonstructural protein 1 (NS1), recombinant (Dengue virus 3, strain Sri …, UniProt Q6YMS4)", "T4 construct": "also called DENV-3 NS1; NS1 from DENV-3; source: bought: Native Antigen Company (recombinant)", "assay": "SPR", "details": "both partners purified", "units": {"Kd": "nM"}}
{"binder": "B1", "Kd": 21.8}
{"binder": "B2", "Kd": 3.2}
{"binder": "B3", "Kd": 4.4}
{"binder": "B4", "Kd": 1.2}
{"binder": "B5", "Kd": 1.1}
{"binder": "B6", "Kd": 7}
{"binder": "B7", "Kd": 85.8}
{"binder": "B8", "Kd": 23.8}
{"binder": "B9", "Kd": 31.6}
{"binder": "B10", "Kd": 12.4}
{"target": "T5, DENV-1 nonstructural protein 1 (NS1), recombinant (dengue virus serotype 1 (DENV-1))", "T5 chain": "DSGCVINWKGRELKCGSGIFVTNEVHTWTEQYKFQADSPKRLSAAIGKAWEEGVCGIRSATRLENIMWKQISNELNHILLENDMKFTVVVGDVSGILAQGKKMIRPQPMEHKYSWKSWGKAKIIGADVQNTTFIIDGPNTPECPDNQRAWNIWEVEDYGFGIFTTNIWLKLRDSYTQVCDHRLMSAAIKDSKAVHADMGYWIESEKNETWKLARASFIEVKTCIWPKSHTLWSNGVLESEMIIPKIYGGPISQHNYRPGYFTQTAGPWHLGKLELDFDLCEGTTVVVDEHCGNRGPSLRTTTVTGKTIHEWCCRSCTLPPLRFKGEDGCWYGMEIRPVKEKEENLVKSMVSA", "assay": "SPR; sdAb immobilized", "details": "not given", "units": {"koff": "s⁻¹"}}
{"binder": "B1", "koff": 0.000289}
{"binder": "B2", "koff": 0.000318}
{"binder": "B4", "koff": 0.00021}
{"binder": "B6", "koff": 0.000423}
{"binder": "B7", "koff": 0.000206}
{"target": "T6, DENV-2 nonstructural protein 1 (NS1), recombinant (dengue virus serotype 2 (DENV-2))", "T6 chain": "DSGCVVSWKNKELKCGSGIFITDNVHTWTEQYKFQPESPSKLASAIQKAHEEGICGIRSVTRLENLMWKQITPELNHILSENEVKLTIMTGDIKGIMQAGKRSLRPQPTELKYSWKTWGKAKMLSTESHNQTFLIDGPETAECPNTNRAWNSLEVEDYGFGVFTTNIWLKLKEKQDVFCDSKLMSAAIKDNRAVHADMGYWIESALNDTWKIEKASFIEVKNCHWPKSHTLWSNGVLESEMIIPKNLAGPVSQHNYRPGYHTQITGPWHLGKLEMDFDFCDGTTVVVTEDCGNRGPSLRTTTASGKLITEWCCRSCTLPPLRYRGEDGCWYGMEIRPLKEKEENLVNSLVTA", "assay": "SPR; sdAb immobilized", "details": "not given", "units": {"koff": "s⁻¹"}}
{"binder": "B1", "koff": 0.00034}
{"binder": "B2", "koff": "7.99e-05"}
{"binder": "B4", "koff": 0.000155}
{"binder": "B6", "koff": 0.000435}
{"binder": "B7", "koff": 0.000182}
{"target": "T1, DENV-4 nonstructural protein 1 (NS1), …", "assay": "SPR", "details": "both partners purified", "remark": "another data set of the same source", "units": {"Kd": "nM"}}
{"binder": "B1", "Kd": 7.1}
{"binder": "B2", "Kd": 6.2}
{"binder": "B4", "Kd": 0.7}
{"binder": "B6", "Kd": 1.1}
{"binder": "B7", "Kd": 0.6}
{"target": "T2, DENV-2 nonstructural protein 1 (NS1), …", "assay": "SPR", "details": "both partners purified", "remark": "another data set of the same source", "units": {"Kd": "nM"}}
{"binder": "B1", "Kd": 3.5}
{"binder": "B2", "Kd": 0.9}
{"binder": "B4", "Kd": 0.6}
{"binder": "B6", "Kd": 1.5}
{"binder": "B7", "Kd": 2.3}
{"target": "T3, DENV-1 nonstructural protein 1 (NS1), …", "assay": "SPR", "details": "both partners purified", "remark": "another data set of the same source", "units": {"Kd": "nM"}}
{"binder": "B1", "Kd": 2.7}
{"binder": "B2", "Kd": 4.2}
{"binder": "B4", "Kd": 0.8}
{"binder": "B6", "Kd": 1.7}
{"binder": "B7", "Kd": 2.2}
{"target": "T4, DENV-3 nonstructural protein 1 (NS1), …", "assay": "SPR", "details": "both partners purified", "remark": "another data set of the same source", "units": {"Kd": "nM"}}
{"binder": "B1", "Kd": 3.1}
{"binder": "B2", "Kd": 25.1}
{"binder": "B3", "Kd": 1.6}
{"binder": "B4", "Kd": 1.7}
{"binder": "B6", "Kd": 2.4}
{"binder": "B7", "Kd": 17.7}
{"target": "T6, DENV-2 nonstructural protein 1 (NS1), …", "assay": "SPR; sdAb immobilized", "details": "not given", "remark": "another data set of the same source", "units": {"Kd": "nM"}}
{"binder": "B4", "Kd": 0.556}
{"target": "T2, DENV-2 nonstructural protein 1 (NS1), …", "assay": "MagPlex (Luminex) bead assay, direct binding", "details": "both partners purified"}
{"binder": "B11", "binding result": "no binding"}
{"target": "T5, DENV-1 nonstructural protein 1 (NS1), …", "assay": "SPR; NS1 immobilized", "details": "not given", "units": {"koff": "s⁻¹"}}
{"binder": "B1", "koff": 0.00141}
{"binder": "B2", "koff": 0.000383}
{"binder": "B9", "koff": 0.00889}
{"binder": "B10", "koff": 0.00658}
{"target": "T7, DENV-3 nonstructural protein 1 (NS1), recombinant (dengue virus serotype 3 (DENV-3))", "T7 chain": "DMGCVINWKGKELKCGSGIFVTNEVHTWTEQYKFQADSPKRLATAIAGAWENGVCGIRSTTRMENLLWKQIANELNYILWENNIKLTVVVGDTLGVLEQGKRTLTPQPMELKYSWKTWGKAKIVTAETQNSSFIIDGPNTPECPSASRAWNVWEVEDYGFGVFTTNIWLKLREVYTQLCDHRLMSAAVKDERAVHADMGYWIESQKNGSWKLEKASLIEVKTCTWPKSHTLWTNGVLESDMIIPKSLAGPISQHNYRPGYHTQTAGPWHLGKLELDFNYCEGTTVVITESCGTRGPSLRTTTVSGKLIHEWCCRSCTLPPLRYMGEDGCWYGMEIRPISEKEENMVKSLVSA", "assay": "SPR; NS1 immobilized", "details": "not given", "units": {"koff": "s⁻¹"}}
{"binder": "B1", "koff": 0.000951}
{"binder": "B2", "koff": 0.000269}
{"binder": "B9", "koff": 0.00741}
{"binder": "B10", "koff": 0.00323}
{"target": "T8, DENV-4 nonstructural protein 1 (NS1), recombinant (dengue virus serotype 4 (DENV-4))", "T8 chain": "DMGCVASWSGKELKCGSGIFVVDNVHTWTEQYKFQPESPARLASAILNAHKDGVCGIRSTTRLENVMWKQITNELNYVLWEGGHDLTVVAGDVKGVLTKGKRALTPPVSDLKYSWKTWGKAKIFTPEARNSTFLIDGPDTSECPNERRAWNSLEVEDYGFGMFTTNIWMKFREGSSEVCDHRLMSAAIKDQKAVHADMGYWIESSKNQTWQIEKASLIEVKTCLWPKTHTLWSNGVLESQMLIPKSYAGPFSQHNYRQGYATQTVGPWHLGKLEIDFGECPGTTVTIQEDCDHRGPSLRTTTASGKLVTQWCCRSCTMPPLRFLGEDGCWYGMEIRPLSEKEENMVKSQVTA", "assay": "SPR; NS1 immobilized", "details": "not given", "units": {"koff": "s⁻¹"}}
{"binder": "B1", "koff": 0.00428}
{"binder": "B2", "koff": 0.00193}
{"binder": "B9", "koff": 0.00501}
{"binder": "B10", "koff": 0.00604}
{"target": "T6, DENV-2 nonstructural protein 1 (NS1), …", "assay": "SPR; NS1 immobilized", "details": "not given", "units": {"koff": "s⁻¹"}}
{"binder": "B1", "koff": 0.000545}
{"binder": "B2", "koff": 0.000347}
{"binder": "B9", "koff": 0.00604}
{"binder": "B10", "koff": 0.00333}
